Source: PMC7318843 (Neuron, 2020)

Molecular target: biotin-labeled Aβ40 (UniProt P05067 672-711, biotin (position not given))
Experiment: pull-down

B1: MDK protein (Midkine), human recombinant (natural protein, UniProt P21741 21-143, looked up)
chain: VAKKKDKVKKGGPGSECAEWAWGPCTPSSKDCGVGFREGTCGAQTQRIRCRVPCNWKKEFGADCKYKFENWGACDGGTGTKVRQGTLKKARYNAQCQETIRVTKPCTPKTKAKAKAKKGKGKD
B1: binds.
